# Like-named read-outs stand apart in the source and are kept apart here.
# Assays:
# [1] = molecular target: T1, human PD-1 on PD-1 effector cells (Jurkat T cells, Promega #J1155) (human, UniProt Q15116 25-288); test: cell-based or functional assay
# [2] = molecular target: T1, human PD-1 on PD-1 effector cells …; test: cell-based or functional assay; remark: listed apart in the source
# [3] = molecular target: T2, Neonatal Fc Receptor (FcRn) (UniProt P55899 24-297; P61769 21-119, limits assumed); test: FcRn binding assay, BIACORE (SPR)
# T2 sequence (P55899 24-297 limits assumed, chain 1 of 2): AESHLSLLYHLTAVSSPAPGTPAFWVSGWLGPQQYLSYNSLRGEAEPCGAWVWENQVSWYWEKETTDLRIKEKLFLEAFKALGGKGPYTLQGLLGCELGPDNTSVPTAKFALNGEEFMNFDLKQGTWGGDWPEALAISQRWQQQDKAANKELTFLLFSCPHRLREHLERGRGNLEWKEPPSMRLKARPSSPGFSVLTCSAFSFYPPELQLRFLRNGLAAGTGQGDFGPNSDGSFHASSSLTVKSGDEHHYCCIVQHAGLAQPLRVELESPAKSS
# T2 sequence (P61769 21-119 limits assumed, chain 2 of 2): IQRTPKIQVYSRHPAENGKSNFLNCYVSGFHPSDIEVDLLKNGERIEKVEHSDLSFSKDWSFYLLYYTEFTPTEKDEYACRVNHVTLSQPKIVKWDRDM
# [4] = molecular target: T3, PD-1 protein constitutively expressed on engineered CHO K1 cells (UniProt Q15116 25-288, limits assumed); test: MSD potency assay: competitive binding on CHO K1 cells expressing PD-1, inhibition of PD-L1-mFc binding, ECL; percent of reference material
# T3 construct: whole, on cells; also called programmed cell death protein 1
# T3 sequence (Q15116 25-288 limits assumed, change not shown): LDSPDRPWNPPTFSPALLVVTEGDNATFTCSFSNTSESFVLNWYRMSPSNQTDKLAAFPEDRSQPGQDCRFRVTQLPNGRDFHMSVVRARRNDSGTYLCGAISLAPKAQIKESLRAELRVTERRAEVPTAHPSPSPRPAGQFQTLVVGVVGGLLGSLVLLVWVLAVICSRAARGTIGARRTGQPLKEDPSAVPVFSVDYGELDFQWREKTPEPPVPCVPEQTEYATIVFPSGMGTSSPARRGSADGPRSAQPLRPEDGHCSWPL
# Protocol: (§1) The Meso Scale Discovery (MSD) potency assay employs engineered CHO K1 cells constitutively expressing the PD-1 protein. […] The readout is measured using a specific detection antibody mixture that releases an electrochemiluminescence (ECL) signal that can be quantified.
# [5] = molecular target: T1, human PD-1 on PD-1 effector cells …; test: cell-based or functional assay; remark: listed apart in the source
# [6] = molecular target: T2, Neonatal Fc Receptor (FcRn); test: FcRn binding assay, BIACORE (SPR); remark: listed apart in the source
# [7] = molecular target: T3, PD-1 protein constitutively expressed …; test: MSD potency assay: competitive binding on CHO K1 cells expressing PD-1, inhibition of PD-L1-mFc binding, ECL; percent of reference material; remark: listed apart in the source
# Protocol: as §1
# [8] = molecular target: T2, Neonatal Fc Receptor (FcRn); test: BIACORE (SPR), antibody immobilized on sensor chip, FcRn injected as analyte
# Protocol: FcRn binding was assessed via BIACORE analysis. […] Various concentrations of analyte (FcRn) were injected for analysis of the association and dissociation properties.
# [9] = molecular target: T2, Neonatal Fc Receptor (FcRn); test: FcRn binding assay, BIACORE (SPR); remark: listed apart in the source
# [10] = molecular target: T3, PD-1 protein constitutively expressed …; test: MSD potency assay: competitive binding on CHO K1 cells expressing PD-1, inhibition of PD-L1-mFc binding, ECL; percent of reference material; remark: listed apart in the source
# Protocol: as §1
# T1 sequence (Q15116 25-288): as the sequence (Q15116 25-288 limits assumed, change not shown) above
binder,measurement,setting,value
"Dostarlimab, AAPH treated, T0 (exposed to AAPH, no incubation) (antibody, human IgG4 S228P, kappa, percent of population: Asn 137 deamidation 1.0; percent of population: Met 248 oxidation 3.3; Asp 261/266/276 isomerization 1.0; Asn 311 deamidation 6.3; Asn 380 deamidation 9.5; Asn 385 deamidation 1.0; Asn 430 deamidation 1.3; Lys 443 clipped 97.8, 5 mM AAPH, quenched at once with methionine; also called AAPH T0; AAPH Oxidation) heavy: not shown light: DIQLTQSPSFLSAYVGDRVTITCKASQDVGTAVAWYQQKPGKAPKLLIYWASTLHTGVPSRFSGSGSGTEFTLTISSLQPEDFATYYCQHYSSYPWTFGQGTKLEIKRTVAAPSVFIFPPSDEQLKSGTASVVCLLNNFYPREAKVQWKVDNALQSGNSQESVTEQDSKDSTYSLSSTLTLSKADYEKHKVYACEVTHQGLSSPVTKSFNRGEC","Relative Potency, Cell-Based Bioassay",[1],102%
same,Relative Potency (Potency by cell-based bioassay),[2],102%
same,Kd,[3],1660 nM
same,"Relative Potency, MSD Binding",[4],79%
"Dostarlimab, acid degraded, T0 (exposed to pH 4.0, no incubation) (antibody, human IgG4 S228P, kappa, percent of population: Asn 137 deamidation 1.2; percent of population: Met 248 oxidation 3.8; Asn 311 deamidation 7.1; Asn 380 deamidation 10.1; Asn 385 deamidation 1.5; Lys 443 clipped 97.1, Mixture; HMW 13.4%, basic peaks 13.6%) heavy: not shown light: DIQLTQSPSFLSAYVGDRVTITCKASQDVGTAVAWYQQKPGKAPKLLIYWASTLHTGVPSRFSGSGSGTEFTLTISSLQPEDFATYYCQHYSSYPWTFGQGTKLEIKRTVAAPSVFIFPPSDEQLKSGTASVVCLLNNFYPREAKVQWKVDNALQSGNSQESVTEQDSKDSTYSLSSTLTLSKADYEKHKVYACEVTHQGLSSPVTKSFNRGEC","Relative Potency, Cell-Based Bioassay",[5],109%
same,Kd,[6],2060 nM
same,"Relative Potency, MSD Binding",[7],99%
"Dostarlimab reference material (antibody, human IgG4 S228P, kappa) heavy: not shown light: DIQLTQSPSFLSAYVGDRVTITCKASQDVGTAVAWYQQKPGKAPKLLIYWASTLHTGVPSRFSGSGSGTEFTLTISSLQPEDFATYYCQHYSSYPWTFGQGTKLEIKRTVAAPSVFIFPPSDEQLKSGTASVVCLLNNFYPREAKVQWKVDNALQSGNSQESVTEQDSKDSTYSLSSTLTLSKADYEKHKVYACEVTHQGLSSPVTKSFNRGEC",Kd,[8],1690 nM
"Dostarlimab, acid degraded, pH 4.0, 25° C., 3 weeks (antibody, human IgG4 S228P, kappa, percent of population: Asn 137 deamidation 1.2; percent of population: Met 248 oxidation 3.1; Asp 261/266/276 isomerization 3.0; Asn 311 deamidation 7.2; Asn 380 deamidation 9.7; Asn 385 deamidation 1.8; Asp 395/397/409 isomerization 2.7; Asn 430 deamidation 1.0; Lys 443 clipped 97.0, Mixture; HMW 15.2%, basic peaks 34.1%; also called Acid Hydrolysis) heavy: not shown light: DIQLTQSPSFLSAYVGDRVTITCKASQDVGTAVAWYQQKPGKAPKLLIYWASTLHTGVPSRFSGSGSGTEFTLTISSLQPEDFATYYCQHYSSYPWTFGQGTKLEIKRTVAAPSVFIFPPSDEQLKSGTASVVCLLNNFYPREAKVQWKVDNALQSGNSQESVTEQDSKDSTYSLSSTLTLSKADYEKHKVYACEVTHQGLSSPVTKSFNRGEC","Relative Potency, Cell-Based Bioassay",[5],125%
same,Relative Potency (Potency by cell-based bioassay),[2],125%
same,Kd,[6],1980 nM
same,"Relative Potency, MSD Binding",[7],88%
"Dostarlimab, base degraded, T0 (exposed to pH 9.0, no incubation) (antibody, human IgG4 S228P, kappa, percent of population: Asn 137 deamidation 1.3; percent of population: Met 248 oxidation 2.8; Asn 311 deamidation 6.8; Asn 380 deamidation 10.8; Asn 385 deamidation 1.8; Lys 443 clipped 96.9, Mixture; HMW 8.1%, acidic peaks 27.2%) heavy: not shown light: DIQLTQSPSFLSAYVGDRVTITCKASQDVGTAVAWYQQKPGKAPKLLIYWASTLHTGVPSRFSGSGSGTEFTLTISSLQPEDFATYYCQHYSSYPWTFGQGTKLEIKRTVAAPSVFIFPPSDEQLKSGTASVVCLLNNFYPREAKVQWKVDNALQSGNSQESVTEQDSKDSTYSLSSTLTLSKADYEKHKVYACEVTHQGLSSPVTKSFNRGEC",Kd,[9],2260 nM
"Dostarlimab, AAPH treated, 40° C., 5 days (antibody, human IgG4 S228P, kappa, V domains shown, percent of population: Trp 50 oxidation 86.8; PTM levels of this sample are not tabulated, 5 mM AAPH; HMW 16.4%; also called AAPH, 40° C., 5 days) VH: EVQLLESGGGLVQPGGSLRLSCAASGFTFSSYDMSWVRQAPGKGLEWVSTISGGGSYTYYQDSVKGRFTISRDNSKNTLYLQMNSLRAEDTAVYYCASPYYAMDYWGQGTTVTVSS VL: DIQLTQSPSFLSAYVGDRVTITCKASQDVGTAVAWYQQKPGKAPKLLIYWASTLHTGVPSRFSGSGSGTEFTLTISSLQPEDFATYYCQHYSSYPWTFGQGTKLEIKR","Relative Potency, Cell-Based Bioassay",[1],5%
same,"Relative Potency, MSD Binding",[4],47%
"Dostarlimab, sustained agitation, 300 rpm, 25° C., 3 weeks (antibody, human IgG4 S228P, kappa, V domains shown, all PTM levels within analytical variability of the control) VH: EVQLLESGGGLVQPGGSLRLSCAASGFTFSSYDMSWVRQAPGKGLEWVSTISGGGSYTYYQDSVKGRFTISRDNSKNTLYLQMNSLRAEDTAVYYCASPYYAMDYWGQGTTVTVSS VL: DIQLTQSPSFLSAYVGDRVTITCKASQDVGTAVAWYQQKPGKAPKLLIYWASTLHTGVPSRFSGSGSGTEFTLTISSLQPEDFATYYCQHYSSYPWTFGQGTKLEIKR",Relative Potency (Potency by cell-based bioassay),[2],86%
"Dostarlimab, H2O2 treated, 25° C., 1 week (antibody, human IgG4 S228P, kappa, V domains shown, percent of population: Asn 137 deamidation 1.3; percent of population: Met 34 oxidation 14.0; Met 103 oxidation 64.9; Met 248 oxidation 98.6; Asn 311 deamidation 7.0; Met 354 oxidation 99.8; Asn 380 deamidation 10.9; Asn 385 deamidation 1.8; Met 424 oxidation 98.0; Lys 443 clipped 98.0, 0.1% (v:v) H2O2; also called H2O2, 25° C., 1 week) VH: EVQLLESGGGLVQPGGSLRLSCAASGFTFSSYDMSWVRQAPGKGLEWVSTISGGGSYTYYQDSVKGRFTISRDNSKNTLYLQMNSLRAEDTAVYYCASPYYAMDYWGQGTTVTVSS VL: DIQLTQSPSFLSAYVGDRVTITCKASQDVGTAVAWYQQKPGKAPKLLIYWASTLHTGVPSRFSGSGSGTEFTLTISSLQPEDFATYYCQHYSSYPWTFGQGTKLEIKR","Relative Potency, MSD Binding",[10],79%
